The assay deals with T1, FliC flagellin of S. enterica serovar Typhimurium (Salmonella enterica serovar …, UniProt P06179).
T1 construct: FliC flagellin, Salmonella enterica serovar Typhimurium; also called purified FliC; source: bought: Sigma-Aldrich
The assay can be described thus: BLI; sdAb immobilized on nickel-charged biosensors and dipped into FliC at 250, 125, 62.5, 31.3 and 15.6 nM. Particulars: both partners purified.

T1 sequence (P06179 whole entry): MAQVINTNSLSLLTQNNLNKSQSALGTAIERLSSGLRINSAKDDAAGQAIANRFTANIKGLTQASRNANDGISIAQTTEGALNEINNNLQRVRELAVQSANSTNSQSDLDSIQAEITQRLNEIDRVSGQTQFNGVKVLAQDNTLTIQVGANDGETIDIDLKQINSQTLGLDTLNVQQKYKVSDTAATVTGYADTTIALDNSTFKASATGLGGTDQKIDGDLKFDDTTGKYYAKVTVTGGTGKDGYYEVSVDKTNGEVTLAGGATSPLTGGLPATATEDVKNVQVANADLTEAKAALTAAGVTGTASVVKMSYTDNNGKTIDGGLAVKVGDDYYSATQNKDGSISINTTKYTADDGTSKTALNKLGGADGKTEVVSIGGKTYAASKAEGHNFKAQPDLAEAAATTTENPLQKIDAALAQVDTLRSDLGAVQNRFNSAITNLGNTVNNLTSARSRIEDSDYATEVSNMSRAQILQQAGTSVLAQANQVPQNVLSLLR

B1: Abi-Se07 (VHH)
VHH: QVQLVESGGGLVQAGGSLRLSCTDSGRTFSVKPMGWFRQAPGMEREFVAAASFTGVSTFYADSVKDRFTIFRDKDKNTMDLQINSLKPEDTGAYYCAGTTRTLWGSKWRDVLEYEYWGQGTQVTVSS
notes: X2 = V or K), CDR2 ASX3TGVST (X3 = F or Y), CDR3 AGTX4RTLWGSKWRDX5X6EYEY (X4 = T or L; X5 = V or R; X6 = L or R); CDR3 is 20 amino acids long; The c-myc tag lies between the VHH and the His6 tag, so it probably stayed on the protein; Gene synthesized and cloned into pET27b; also called 0A07; anti-Salmonella sdAb; not shown: His6, C-terminal, kept
In the case of B1, binding was characterised by a dissociation constant (Kd) of 16.2 nM.

These data come from publication PMC6901939, “A Novel Single Domain Antibody Targeting FliC Flagellin of Salmonella enterica for Effective Inhibition of Host Cell Invasion” (Frontiers in Microbiology, 2019).
